Measurements published in publication PMC2756588.
“And” between values parts separate entries of the source, which are not always exact repeats. Equal values may be shown once.

T1: Boi1, P38041
T1 sequence (P38041 1-86, looked up): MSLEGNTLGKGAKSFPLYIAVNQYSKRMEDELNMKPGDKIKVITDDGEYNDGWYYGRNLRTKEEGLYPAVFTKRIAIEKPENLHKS

T2: Bzz1-2, P38822
T2 sequence (P38822 568-633, looked up): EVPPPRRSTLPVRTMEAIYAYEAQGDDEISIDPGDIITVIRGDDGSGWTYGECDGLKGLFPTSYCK

T3: Boi2, P39969
T3 sequence (P39969 32-116, looked up): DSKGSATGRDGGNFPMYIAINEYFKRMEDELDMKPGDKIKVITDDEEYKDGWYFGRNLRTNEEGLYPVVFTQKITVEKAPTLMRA

T4: Sla1-2, P32790
T4 sequence (P32790 60-140, looked up): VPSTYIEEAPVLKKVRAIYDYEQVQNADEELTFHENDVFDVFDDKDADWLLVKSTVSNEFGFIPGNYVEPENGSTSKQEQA

T5: Lsb3, P43603
T5 sequence (P43603 385-451, looked up): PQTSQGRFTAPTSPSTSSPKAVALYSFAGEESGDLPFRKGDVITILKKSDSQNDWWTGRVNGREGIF

T6: Abp1, P15891
T6 sequence (P15891 535-592, looked up): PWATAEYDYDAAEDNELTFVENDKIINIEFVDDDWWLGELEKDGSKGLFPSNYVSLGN

T7: Sla1-3, P32790
T7 sequence (P32790 344-424, looked up): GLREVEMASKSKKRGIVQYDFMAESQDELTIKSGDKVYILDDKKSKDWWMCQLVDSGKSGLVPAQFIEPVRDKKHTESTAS

T8: Lsb1, P53281
T8 sequence (P53281 45-122, looked up): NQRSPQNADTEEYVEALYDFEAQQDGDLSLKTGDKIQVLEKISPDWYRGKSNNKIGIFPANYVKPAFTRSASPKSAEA

T9: Myo5, Q04439
T9 sequence (Q04439 1072-1160, looked up): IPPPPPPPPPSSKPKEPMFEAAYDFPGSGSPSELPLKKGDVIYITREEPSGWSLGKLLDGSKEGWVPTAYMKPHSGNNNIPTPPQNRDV

T10: Cyk3, Q07533
T10 sequence (Q07533 1-83, looked up): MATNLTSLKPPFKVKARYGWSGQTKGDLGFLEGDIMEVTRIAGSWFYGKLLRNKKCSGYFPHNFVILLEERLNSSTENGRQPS

T11: Bbc1, P47068
T11 sequence (P47068 1-78, looked up): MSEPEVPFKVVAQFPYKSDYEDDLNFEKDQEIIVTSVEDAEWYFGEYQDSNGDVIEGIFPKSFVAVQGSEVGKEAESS

T12: Cdc25, P04821
T12 sequence (P04821 50-136, looked up): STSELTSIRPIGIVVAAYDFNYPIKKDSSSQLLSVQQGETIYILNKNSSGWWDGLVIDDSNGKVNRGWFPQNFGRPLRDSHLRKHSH

T13: Nbp2, Q12163
T13 sequence (Q12163 103-180, looked up): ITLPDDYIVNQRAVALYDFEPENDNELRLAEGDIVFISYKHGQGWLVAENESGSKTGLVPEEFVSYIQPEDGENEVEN

T14: Hse1, P38753
T14 sequence (P38753 208-285, looked up): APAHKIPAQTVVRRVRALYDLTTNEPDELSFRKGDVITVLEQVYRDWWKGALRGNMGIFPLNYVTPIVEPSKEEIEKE

T15: Hof1, Q05080
T15 sequence (Q05080 590-669, looked up): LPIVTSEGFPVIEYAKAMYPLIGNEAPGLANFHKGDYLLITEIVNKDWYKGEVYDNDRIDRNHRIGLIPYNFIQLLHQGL

T16: Fus1, P11710
T16 sequence (P11710 432-512, looked up): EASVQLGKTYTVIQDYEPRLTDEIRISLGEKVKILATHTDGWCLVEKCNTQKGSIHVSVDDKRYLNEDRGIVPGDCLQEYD

T17: Bzz1-1, P38822
T17 sequence (P38822 478-572, looked up): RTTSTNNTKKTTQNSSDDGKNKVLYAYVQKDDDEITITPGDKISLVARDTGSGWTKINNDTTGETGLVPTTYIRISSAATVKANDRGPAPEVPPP

T18: Pex13, P80667
T18 sequence (P80667 295-386, looked up): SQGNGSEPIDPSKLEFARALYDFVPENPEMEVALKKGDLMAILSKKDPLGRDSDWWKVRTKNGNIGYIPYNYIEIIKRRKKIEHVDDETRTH

T19: Lsb4, P32793
T19 sequence (P32793 402-468, looked up): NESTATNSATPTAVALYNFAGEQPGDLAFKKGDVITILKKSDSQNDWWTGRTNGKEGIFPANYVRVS

T20: Pin3, Q06449
T20 sequence (Q06449 53-122, looked up): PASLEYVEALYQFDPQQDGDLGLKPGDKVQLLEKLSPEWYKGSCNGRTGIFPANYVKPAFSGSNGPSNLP

T21: Bud14, P27637
T21 sequence (P27637 247-328, looked up): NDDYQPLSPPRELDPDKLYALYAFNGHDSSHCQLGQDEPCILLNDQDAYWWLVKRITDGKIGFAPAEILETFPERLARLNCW


biological target: Sho1, P40073; assay: SPOT array; conditions: median of control spots 1148
Sequence (P40073 287-367): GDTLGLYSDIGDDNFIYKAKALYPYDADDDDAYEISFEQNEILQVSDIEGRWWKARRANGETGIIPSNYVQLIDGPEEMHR

SPOT intensity	Binder
138 and 78	SPAPIVPREPLRNEP
160 and 101	RHLKNIPRIPIFSIL
0	SSSSTPPTLPPRRIE

biological target: T1, Boi1, P38041; assay: SPOT array; conditions: median of control spots 1162

SPOT intensity	Binder
45 and 64	SPAPIVPREPLRNEP
14 and 10	RHLKNIPRIPIFSIL
0	SSSSTPPTLPPRRIE

biological target: T2, Bzz1-2, P38822; assay: SPOT array; conditions: median of control spots 4538

SPOT intensity	Binder
4030 and 3640	SPAPIVPREPLRNEP
394 and 164	RHLKNIPRIPIFSIL
0	SSSSTPPTLPPRRIE

biological target: T3, Boi2, P39969; assay: SPOT array; conditions: median of control spots 1161

SPOT intensity	Binder
28 and 50	SPAPIVPREPLRNEP
3 and 1	RHLKNIPRIPIFSIL
0	SSSSTPPTLPPRRIE

biological target: T4, Sla1-2, P32790; assay: SPOT array; conditions: median of control spots 712

SPOT intensity	Binder
0	RHLKNIPRIPIFSIL
1	SSSSTPPTLPPRRIE

biological target: T5, Lsb3, P43603; assay: SPOT array; conditions: median of control spots 406

SPOT intensity	Binder
46 and 25	SPAPIVPREPLRNEP
1090	SSSSTPPTLPPRRIE

biological target: T6, Abp1, P15891; assay: SPOT array; conditions: median of control spots 935

SPOT intensity	Binder
122 and 106	SPAPIVPREPLRNEP
49 and 31	RHLKNIPRIPIFSIL
19	SSSSTPPTLPPRRIE

biological target: Bem1-1, P29366; assay: SPOT array; conditions: median of control spots 4282
Sequence (P29366 55-141): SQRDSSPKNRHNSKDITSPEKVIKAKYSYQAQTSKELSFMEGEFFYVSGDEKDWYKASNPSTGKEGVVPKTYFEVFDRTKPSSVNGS

SPOT intensity	Binder
3190 and 3200	SPAPIVPREPLRNEP
823 and 2170	RHLKNIPRIPIFSIL
0	SSSSTPPTLPPRRIE

biological target: T7, Sla1-3, P32790; assay: SPOT array; conditions: median of control spots 5475

SPOT intensity	Binder
3540 and 3050	SPAPIVPREPLRNEP
992 and 402	RHLKNIPRIPIFSIL
1	SSSSTPPTLPPRRIE

biological target: T8, Lsb1, P53281; assay: SPOT array; conditions: median of control spots 388

SPOT intensity	Binder
1360	SSSSTPPTLPPRRIE

biological target: T9, Myo5, Q04439; assay: SPOT array; conditions: median of control spots 471

SPOT intensity	Binder
88 and 90	SPAPIVPREPLRNEP
5 and 3	RHLKNIPRIPIFSIL
11	SSSSTPPTLPPRRIE

biological target: GST; assay: SPOT array; conditions: median of control spots 978

SPOT intensity	Binder
1000 and 337	SPAPIVPREPLRNEP
0	SSSSTPPTLPPRRIE

biological target: T10, Cyk3, Q07533; assay: SPOT array; conditions: median of control spots 1451

SPOT intensity	Binder
241 and 231	SPAPIVPREPLRNEP
1 and 3	RHLKNIPRIPIFSIL
0	SSSSTPPTLPPRRIE

biological target: T11, Bbc1, P47068; assay: SPOT array; conditions: median of control spots 796

SPOT intensity	Binder
49 and 40	SPAPIVPREPLRNEP
25 and 23	RHLKNIPRIPIFSIL
11	SSSSTPPTLPPRRIE

biological target: T12, Cdc25, P04821; assay: SPOT array; conditions: median of control spots 969

SPOT intensity	Binder
240 and 142	SPAPIVPREPLRNEP
230 and 113	RHLKNIPRIPIFSIL
2	SSSSTPPTLPPRRIE

biological target: T13, Nbp2, Q12163; assay: SPOT array; conditions: median of control spots 357

SPOT intensity	Binder
184 and 63	RHLKNIPRIPIFSIL
0	SSSSTPPTLPPRRIE

biological target: T14, Hse1, P38753; assay: SPOT array; conditions: median of control spots 1727

SPOT intensity	Binder
2790 and 3860	SPAPIVPREPLRNEP
307 and 687	RHLKNIPRIPIFSIL
9	SSSSTPPTLPPRRIE

biological target: T15, Hof1, Q05080; assay: SPOT array; conditions: median of control spots 4086

SPOT intensity	Binder
1550 and 3190	SPAPIVPREPLRNEP
5560 and 3670	RHLKNIPRIPIFSIL
5	SSSSTPPTLPPRRIE

biological target: T16, Fus1, P11710; assay: SPOT array; conditions: median of control spots 1200

SPOT intensity	Binder
227 and 99	SPAPIVPREPLRNEP
1870 and 1460	RHLKNIPRIPIFSIL
0	SSSSTPPTLPPRRIE

biological target: Rvs167, P39743; assay: SPOT array; conditions: median of control spots 2707
Sequence (P39743 419-482): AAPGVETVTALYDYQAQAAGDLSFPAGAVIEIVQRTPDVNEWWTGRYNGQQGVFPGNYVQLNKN

SPOT intensity	Binder
2590 and 3300	SPAPIVPREPLRNEP
5650	SSSSTPPTLPPRRIE

biological target: T17, Bzz1-1, P38822; assay: SPOT array; conditions: median of control spots 4446

SPOT intensity	Binder
3070 and 3750	SPAPIVPREPLRNEP
0	SSSSTPPTLPPRRIE

biological target: T18, Pex13, P80667; assay: SPOT array; conditions: median of control spots 1341

SPOT intensity	Binder
403 and 875	SPAPIVPREPLRNEP
163 and 113	RHLKNIPRIPIFSIL
365	SSSSTPPTLPPRRIE

biological target: T19, Lsb4, P32793; assay: SPOT array; conditions: median of control spots 397

SPOT intensity	Binder
114 and 89	SPAPIVPREPLRNEP
4 and 7	RHLKNIPRIPIFSIL
907	SSSSTPPTLPPRRIE

biological target: T20, Pin3, Q06449; assay: SPOT array; conditions: median of control spots 2171

SPOT intensity	Binder
721 and 289	SPAPIVPREPLRNEP
84	RHLKNIPRIPIFSIL
58	SSSSTPPTLPPRRIE

biological target: Myo3, P36006; assay: SPOT array; conditions: median of control spots 468

SPOT intensity	Binder
122 and 104	SPAPIVPREPLRNEP
14 and 19	RHLKNIPRIPIFSIL
99	SSSSTPPTLPPRRIE

biological target: Bem1-2, P29366; assay: SPOT array; conditions: median of control spots 4347
Sequence (P29366 139-227): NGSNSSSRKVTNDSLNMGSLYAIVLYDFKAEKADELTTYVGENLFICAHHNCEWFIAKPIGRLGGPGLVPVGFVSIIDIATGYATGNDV

SPOT intensity	Binder
2910 and 3310	SPAPIVPREPLRNEP
4830 and 2260	RHLKNIPRIPIFSIL
0	SSSSTPPTLPPRRIE

biological target: T21, Bud14, P27637; assay: SPOT array; conditions: median of control spots 956

SPOT intensity	Binder
184 and 188	SPAPIVPREPLRNEP
16 and 18	RHLKNIPRIPIFSIL
0	SSSSTPPTLPPRRIE
